From the supplement of paper PMC10899765

Key:
Settings in all cases: 20 nM; 72 h
[1] = system: MCF10A; assay: one-nucleolus phenotype percent effect (relative to siNT 0% and siNOL11 100%); higher = more cells with one nucleolus (ribosome biogenesis inhibition)
Experimental: (§1)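 After 72 h, cells were fixed and stained with Hoechst and anti-fibrillarin, and nucleoli per nucleus were counted with CellProfiler. Values are plate-adjusted percent effect for the one-nucleolus and 5+ nucleoli phenotypes, normalised to siNT (0%) and to the positive controls siNOL11 or siKIF11 (100%), as the mean of biological triplicates. Percent viability is the nuclei count relative to siNT.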

[2] = system: MCF10A; assay: percent viability (nuclei count relative to siNT); higher = more viable cells
Experimental: as §1

[3] = system: MCF10A; assay: 5+ nucleoli phenotype percent effect (relative to siNT 0% and siKIF11 100%); higher = more cells with five or more nucleoli
Experimental: as §1

Row | Sequence | one-nucleolus phenotype percent effect [1] [%] | percent viability [2] [%] | 5+ nucleoli phenotype percent effect [3] [%]
1 | CCUCCUGCCCUCCUUGCUGU [hsa-miR-1976] | 7.39 | 79.5 | 21.5
2 | CCUCGGUACUGGAAAGGGGUA [hsa-miR-8088] | -9.43 | 108 | 15.8
3 | CCUCUAAAGGGAAGCGCUUUCU [hsa-miR-520f-5p] | -26.3 | 119 | 57.3
4 | CCUCUAGAUGGAAGCACUGUCU [hsa-miR-517-5p] | 2.26 | 56 | 23.9
5 | CCUCUCCUCCCUGUGCCCCAG [hsa-miR-6845-3p] | -13.8 | 60.1 | 26.2
6 | CCUCUGAAAUUCAGUUCUUCAG [hsa-miR-146a-3p] | -13.5 | 125 | 27.1
7 | CCUCUGGGCCCUUCCUCCAG [hsa-miR-326] | 56.9 | 20.2 | -35.6
8 | CCUCUUCCCCUUGUCUCUCCAG [hsa-miR-1236-3p] | -6.25 | 76.4 | 14.8
9 | CCUGACACCCCAUCUGCCCUCA [hsa-miR-6730-3p] | 26.8 | 61.8 | -26.1
10 | CCUGACCCACCCCCUCCCGCAG [hsa-miR-4750-3p] | -19.1 | 95.7 | 40.4
11 | CCUGAGAAAAGGGCCAA [hsa-miR-4251] | 15.3 | 31.3 | -4.33
12 | CCUGAGACCCUAGUUCCAC [hsa-miR-4329] | -7.16 | 60.7 | 1.67
13 | CCUGAGCCCGGGCCGCGCAG [hsa-miR-1199-5p] | -24.2 | 71.4 | 27.4
14 | CCUGAUCCCACAGCCCACCU [hsa-miR-3151-3p] | -1.47 | 66.1 | 2.64
15 | CCUGCAACUUUGCCUGAUCAGA [hsa-miR-4772-3p] | -15.1 | 47.3 | 16.6
16 | CCUGCAGAGAGGAAGCCCUUC [hsa-miR-3158-5p] | 26.4 | 38.5 | -45.3
17 | CCUGCAGCGACUUGAUGGCUUCC [hsa-miR-1184] | 4.01 | 70.1 | -8.51
18 | CCUGCGAGUCUCCGGCGGUGG [hsa-miR-6068] | -17.2 | 97.4 | 24.3
19 | CCUGCGUGUUUUCUGUCCAA [hsa-miR-4520a-5p] | 3.67 | 52.7 | -4.05
20 | CCUGCGUGUUUUCUGUCCAA [hsa-miR-4520b-5p] | 1.66 | 51 | -6.92
21 | CCUGCUGGUCAGGAGUGGAUACUG [hsa-miR-3692-5p] | 2.08 | 32.9 | 6.3
22 | CCUGGAAACACUGAGGUUGUG [hsa-miR-875-3p] | -26.1 | 155 | 37.4
23 | CCUGGACACCGCUCAGCCGGCCG [hsa-miR-4638-3p] | -15.8 | 106 | 8.98
24 | CCUGGCAUAUUUGGUAUAACUU [hsa-miR-4720-5p] | 1.6 | 31.3 | 46.4

Row | Sequence | one-nucleolus phenotype percent effect [1] [%] | percent viability [2] [%] | 5+ nucleoli phenotype percent effect [3] [%]
25 | CCUGGGCAGCGUGUGGCUGAAGG [hsa-miR-3187-5p] | -3.44 | 66.4 | 41.1
26 | CCUGGGGACAGGGGAUUGGGGCAG [hsa-miR-8089] | -19.7 | 93.2 | 40.1
27 | CCUGGUGGCUUCCUUUU [hsa-miR-4456] | 6.37 | 23.6 | -4.84
28 | CCUGUCUGUGCCUGCUGUACA [hsa-miR-3120-5p] | -1.5 | 127 | 4.71
29 | CCUGUGCUCCCAGGGCCUCGC [hsa-miR-5008-3p] | -14.5 | 77.3 | 24
30 | CCUGUGGGCCACCUAGUCACCAA [hsa-miR-134-3p] | 8.84 | 44.8 | -15.2
31 | CCUGUUCUCCAUUACUUGGCUC [hsa-miR-26b-3p] | 7.43 | 63.1 | -23.3
32 | CCUGUUGAAGUGUAAUCCCCA [hsa-miR-1267] | -18.3 | 114 | 39.6
33 | CCUUCACUGUGACUCUGCUGCAG [hsa-miR-6837-3p] | -30.8 | 180 | 50.7
34 | CGAAAACAGCAAUUACCUUUGC [hsa-miR-570-3p] | -22.6 | 164 | 34.2
35 | CGAAUCAUUAUUUGCUGCUCUA [hsa-miR-15b-3p] | -19.7 | 131 | 28.9
36 | CGACCUCGGCGACCCCUCACU [hsa-miR-6790-3p] | 8.29 | 45.6 | -13.8
37 | CGAGCCUCAAGCAAGGGACUU [hsa-miR-2114-3p] | 19.8 | 32.7 | -15.9
38 | CGAGGGCAUUUCAUGAUGCAGGC [hsa-miR-3616-3p] | 43.6 | 24.6 | -22
39 | CGAGGGGUAGAAGAGCACAGGGG [hsa-miR-6738-5p] | -8.33 | 75.7 | 26.9
40 | CGCACCUGCCUCUCACCCACAG [hsa-miR-6804-3p] | -33.9 | 74.2 | 33.2
41 | CGCAGACAAUGCCUACUGGCCUA [hsa-miR-3166] | 6.38 | 21.3 | -21.5
42 | CGCAGGGCCCUGGCGCAGGCAU [hsa-miR-6836-5p] | 28.5 | 37.7 | -6.59
43 | CGCAGGGGCCGGGUGCUCACCG [hsa-miR-1909-3p] | 20.6 | 26.7 | 13.4
44 | CGCAUCCCCUAGGGCAUUGGUGU [hsa-miR-324-5p] | -15.6 | 76.6 | 21.4
45 | CGCCCCUCCUGCCCCCACAG [hsa-miR-4749-3p] | -18.4 | 115 | 64.3
46 | CGCCGCGCGCAUCGGCUCAGC [hsa-miR-6869-3p] | 4.08 | 28.8 | -29.2
47 | CGCCUCUUCAGCGCUGUCUUCC [hsa-miR-2682-3p] | -7.1 | 75.9 | 24
48 | CGCCUGCCCAGCCCUCCUGCU [hsa-miR-4763-5p] | 11.6 | 38.1 | -11.3
